Experimental data published in publication PMC9232105, “S-Adenosylmethionine–responsive cystathionine β-synthase modulates sulfur metabolism and redox balance in Mycobacterium tuberculosis” (Science Advances, 2022).
Numbering of substitutions follows the chain as printed. Numbers in names are those of the source.

B1: MtbCbs mutant lacking the Bateman module (MtbCbs 1-317) (domain or fragment)
chain: MRIAQHISELIGGTPLVRLNSVVPDGAGTVAAKVEYLNPGGSSKDRIAVKMIEAAEASGQLKPGGTIVEPTSGNTGVGLALVAQRRGYKCVFVCPDKVSEDKRNVLIAYGAEVVVCPTAVPPHDPASYYSVSDRLVRDIDGAWKPDQYANPEGPASHYVTTGPEIWADTEGKVTHFVAGIGTGGTITGAGRYLKEVSGGRVRIVGADPEGSVYSGGAGRPYLVEGVGEDFWPAAYDPSVPDEIIAVSDSDSFDMTRRLAREEAMLVGGSCGMAVVAALKVAEEAGPDALIVVLLPDGGRGYMSKIFNDAWMSSYGFL
B2: MtbCbs L454A (enzyme)
chain: MRIAQHISELIGGTPLVRLNSVVPDGAGTVAAKVEYLNPGGSSKDRIAVKMIEAAEASGQLKPGGTIVEPTSGNTGVGLALVAQRRGYKCVFVCPDKVSEDKRNVLIAYGAEVVVCPTAVPPHDPASYYSVSDRLVRDIDGAWKPDQYANPEGPASHYVTTGPEIWADTEGKVTHFVAGIGTGGTITGAGRYLKEVSGGRVRIVGADPEGSVYSGGAGRPYLVEGVGEDFWPAAYDPSVPDEIIAVSDSDSFDMTRRLAREEAMLVGGSCGMAVVAALKVAEEAGPDALIVVLLPDGGRGYMSKIFNDAWMSSYGFLRSRLDGSTEQSTVGDVLRRKSGALPALVHTHPSETVRDAIGILREYGVSQMPVVGAEPPVMAGEVAGSVSERELLSAVFEGRAKLADAVSAHMSPPLRMIGAGELVSAAGKALRDWDALMVVEEGKPVGVITRYDLAGFLSEGAGRR
B3: MtbCbs S393R (enzyme)
chain: B2 chain with S393R, A454L
B4: MtbCbs I357A (enzyme)
chain: B2 chain with I357A, A454L
notes: also called I357A mutant
B5: MtbCbs R450A (enzyme)
chain: B2 chain with R450A, A454L
B6: MtbCbs E388A (enzyme)
chain: B2 chain with E388A, A454L
B7: MtbCbs W433F (enzyme)
chain: B2 chain with W433F, A454L
B8: MtbCbs S411A (enzyme)
chain: B2 chain with S411A, A454L
B9: MtbCbs D432N (enzyme)
chain: B2 chain with D432N, A454L
B10: MtbCbs E390A (enzyme)
chain: B2 chain with E390A, A454L

Target: the molecule itself
Assay: SEC

Row | Protein | stoichiometry N | binding result
1 | B1 | 2 | 
2 | B2 |  | binds
3 | B3 |  | binds
4 | B4 |  | binds
5 | B5 |  | binds
6 | B6 |  | binds

Target: the molecule itself
Assay: not given

Row | Protein | stoichiometry N
7 | B7 | 4
8 | B8 | 4
9 | B9 | 4
10 | B10 | 4
